Publication PMC2171822

Target: tetramethylrhodamine-labeled microtubule (tubulin purified from bovine brain) (bovine) (UniProt Q6B856)
Experiment: fluorescence microscopy of kinesin-coated beads binding to a single microtubule

- average binding frequency: 0.018 μm^−1 s^−1
- koff: 0.004 s⁻¹
Substance: native kinesin purified from bovine brain (complex)
